Assay results taken from USRE47150 (Bayer, dated 2018).
Where a chain is given by its changes, count along the chain named. In names and notes the source's numbering stands.

T1: human tissue factor pathway inhibitor (TFPI) (human, UniProt P10646 29-304, limits assumed)
T1 construct: bought; also called hTFPI; human TFPI
T1 sequence (looked up): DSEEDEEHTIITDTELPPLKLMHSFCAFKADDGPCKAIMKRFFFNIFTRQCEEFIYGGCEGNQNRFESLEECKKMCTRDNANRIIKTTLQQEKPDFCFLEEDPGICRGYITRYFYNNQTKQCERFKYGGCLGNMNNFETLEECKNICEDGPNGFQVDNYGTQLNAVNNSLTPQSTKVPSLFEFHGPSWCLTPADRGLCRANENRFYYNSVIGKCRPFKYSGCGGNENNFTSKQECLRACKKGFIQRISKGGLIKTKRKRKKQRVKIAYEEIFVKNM

T2: mouse tissue factor pathway inhibitor (TFPI) (mouse, UniProt O54819 29-289, limits assumed)
T2 construct: bought; also called mTFPI; murine TFPI
T2 sequence (looked up): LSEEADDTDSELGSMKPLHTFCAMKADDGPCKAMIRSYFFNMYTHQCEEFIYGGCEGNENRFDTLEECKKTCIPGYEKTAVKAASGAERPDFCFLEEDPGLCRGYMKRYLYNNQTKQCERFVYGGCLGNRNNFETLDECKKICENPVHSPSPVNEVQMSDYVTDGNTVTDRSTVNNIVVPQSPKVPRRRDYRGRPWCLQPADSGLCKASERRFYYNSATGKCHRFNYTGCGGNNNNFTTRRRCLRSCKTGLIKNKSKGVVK

B1: 2A8 wild-type Fab (Fab, V domains shown)
VH: QVQLVESGGGLVQPGGSLRLSCAASGFTFRSYGMSWVRQAPGKGLEWVSSIRGSSSSTYYADSVKGRFTISRDNSKNTLYLQMNSLRAEDTAVYYCARKYRYWFDYWGQGTLVTVSS
VL: DIELTQPPSVSVAPGQTARISCSGDNLRNYYAHWYQQKPGQAPVVVIYYDNNRPSGIPERFSGSNSGNTATLTISGTQAEDEADYYCQSWDDGVPVFGGGTKLTVLG
notes: Fab with c-myc (or HA, or none) and 6xHis tag at the C-terminus of the heavy chain; also called 2A8wt; 2A8 wt
B2: 2A8-127 (HC S35D+K99L/LC Y48F+N51V+G56D+V96W) (Fab, V domains shown)
VH: B1 VH with S35D, K99L
VL: B1 VL with Y48F, N51V, G56D, V96W
B3: 2A8-143 (HC S35D+S55R+K99L/LC Y48F+N51V+D91L+V96W) (Fab, V domains shown)
VH: B1 VH with S35D, S55R, K99L
VL: B1 VL with Y48F, N51V, D91L, V96W
B4: 2A8-200 (HC S35D+S55R+K99L/LC Y48F+N51V+D91W) (Fab, V domains shown)
VH: B1 VH with S35D, S55R, K99L
VL: B1 VL with Y48F, N51V, D91W
B5: 2A8-216 (HC S31V+I51D+S55R+K99V/LC Y48F+D91L+V96W) (Fab, V domains shown)
VH: B1 VH with S31V, I51D, S55R, K99V
VL: B1 VL with Y48F, D91L, V96W
B6: 2A8 HC_K99L (Fab, V domains shown)
VH: B1 VH with K99L
VL: B1 VL
notes: also called 2A8-9
B7: 4B7 HC_D62R (Fab, V domains shown)
VH: QVQLQQSGPGLVKPSQTLSLTCAISGDSVSSNSAAWSWIRQSPGRGLEWLGIIYKRSKWYNRYAVSVKSRITINPDTSKNQFSLQLNSVTPEDTAVYYCARWHSDKHWGFDYWGQGTLVTVSS
VL: DIVMTQSPLSLPVTPGEPASISCRSSQSLVFSDGNTYLNWYLQKPGQSPQLLIYKGSNRASGVPDRFSGSGSGTDFTLKISRVEAEDVGVYYCQQYDSYPLTFGQGTKVEIKR
notes: also called 4B7-D62R

target: T1, human tissue factor pathway inhibitor …; assay: SPR, TFPI immobilized

Compared with B1, B2 is higher in KD fold improvement: 1 fold for the first, 22 fold for the second.

Compared with B3, B4 is higher in KD fold improvement: 50.9 fold for the first, 53.7 fold for the second.

Binder B5 has a KD fold improvement of 39.6 fold.

First: B1
Second: B2
The Kd of the first is 22-fold higher: 1.85 nM for the first, 0.0841 nM for the second. The second binds more tightly here.

B3 and B4 are within 1.5-fold of each other in Kd: 0.0364 nM for the first, 0.0344 nM for the second.

For B5, the Kd was 0.0467 nM.

Compared with B1, B2 is 27-fold lower in koff: 0.0038 s⁻¹ for the first, 0.000141 s⁻¹ for the second.

B3 and B4 are within 1.5-fold of each other in koff: 0.000105 s⁻¹ for the first, 9.88e-05 s⁻¹ for the second.

With B5 the koff was 0.000154 s⁻¹.

B1 and B2 are within 1.5-fold of each other in kon: 2.05e+06 M⁻¹ s⁻¹ for the first, 1.68e+06 M⁻¹ s⁻¹ for the second.

B3 and B4 are within 1.5-fold of each other in kon: 2.88e+06 M⁻¹ s⁻¹ for the first, 2.87e+06 M⁻¹ s⁻¹ for the second.

B5 showed a kon of 3.29e+06 M⁻¹ s⁻¹.

target: T1, human tissue factor pathway inhibitor …; assay: competitive ELISA

For B6, the variant/wild-type was 13.5 ratio.

target: T2, mouse tissue factor pathway inhibitor …; assay: competitive ELISA

Binder B6 has a variant/wild-type of 10.8 ratio.

target: T1, human tissue factor pathway inhibitor …; assay: SPR, TFPI immobilized; remark: another data set of the same source

Going from B1 to B6, the Improvement rises from 1 fold to 7.22 fold.

B7 was tested, and the Improvement was 191 fold.

Going from B1 to B6, the Kd falls from 2.24 nM to 0.309 nM (7.2-fold).

For B7, the Kd was 0.0582 nM.

Going from B1 to B6, the koff falls from 0.007 s⁻¹ to 0.000803 s⁻¹ (8.7-fold).

B7 was tested, and the koff was 0.000165 s⁻¹.

B1 and B6 are within 1.5-fold of each other in kon: 3.13e+06 M⁻¹ s⁻¹ for the first, 2.6e+06 M⁻¹ s⁻¹ for the second.

With B7 the kon was 2.83e+06 M⁻¹ s⁻¹.

target: T3, recombinant TFPI of the FXa restoring assay (human, mouse or rat; not specified for Tables 9 and 10); assay: cell-based or functional assay

Compared with B1, B6 is 3.9-fold lower in “IC50, FXa restoring assay” value: 0.7 µg/mL for the first, 0.181 µg/mL for the second.

B7 was tested, and the “IC50, FXa restoring assay” value was 0.058 µg/mL.

Going from B1 to B6, the “Improvement vs parental, FXa restoring assay” value rises from 1 fold to 3.9 fold.

For B7, the “Improvement vs parental, FXa restoring assay” value was 25 fold.

target: T1, human tissue factor pathway inhibitor …; assay: competitive ELISA; remark: another data set of the same source

Work on B7 yielded a variant/wild-type of 32.3 ratio.

target: T2, mouse tissue factor pathway inhibitor …; assay: equilibrium ELISA

With B7 the variant/wild-type was 230 ratio.

target: T2, mouse tissue factor pathway inhibitor …; assay: SPR, TFPI immobilized

Compared with B1, B6 is higher in Improvement: 1 fold for the first, 7.2 fold for the second.

Binder B7 has an Improvement of 137 fold.

Going from B1 to B6, the Kd falls from 3.51 nM to 0.488 nM (7.2-fold). The second binds more tightly here.

B7 showed a Kd of 0.427 nM.

Compared with B1, B6 is 6.8-fold lower in koff: 0.00517 s⁻¹ for the first, 0.000759 s⁻¹ for the second.

In the case of B7, the koff is reported as 0.00367 s⁻¹.

B1 and B6 are within 1.5-fold of each other in kon: 1.47e+06 M⁻¹ s⁻¹ for the first, 1.56e+06 M⁻¹ s⁻¹ for the second.

B7 showed a kon of 8.58e+06 M⁻¹ s⁻¹.

target: T1, human tissue factor pathway inhibitor …; assay: SPR, TFPI immobilized; remark: another data set of the same source

With B7 the “kd fold improvement against 4B7” value was ~50 fold.

target: T2, mouse tissue factor pathway inhibitor …; assay: SPR, TFPI immobilized; remark: another data set of the same source

First: B1
Second: B2
The KD fold improvement of the first is lower: 1 fold for the first, 18.5 fold for the second.

Going from B3 to B4, the KD fold improvement rises from 48.5 fold to 55.4 fold.

B5 showed a KD fold improvement of 63.9 fold.

First: B1
Second: B5
The Kd of the first is 64-fold higher: 3.29 nM for the first, 0.0515 nM for the second. The second binds more tightly here.

Going from B1 to B5, the koff falls from 0.0031 s⁻¹ to 0.000216 s⁻¹ (14-fold).

First: B1
Second: B5
The kon of the first is 4.5-fold lower: 940000 M⁻¹ s⁻¹ for the first, 4.19e+06 M⁻¹ s⁻¹ for the second.

target: T1, human tissue factor pathway inhibitor …; assay: competitive ELISA; remark: another data set of the same source

Going from B2 to B3, the variant/HC_K99L falls from 18.8 ratio to 17.8 ratio.

Compared with B4, B5 is lower in variant/HC_K99L: 19.7 ratio for the first, 16.4 ratio for the second.

target: T2, mouse tissue factor pathway inhibitor …; assay: competitive ELISA; remark: another data set of the same source

Going from B2 to B3, the variant/HC_K99L falls from 18.7 ratio to 13.4 ratio.

Going from B4 to B5, the variant/HC_K99L falls from 17.4 ratio to 11.9 ratio.

target: T3, recombinant TFPI of the FXa restoring …; assay: cell-based or functional assay; remark: another data set of the same source

Compared with B1, B2 is 18-fold lower in “EC50, FXa restoring assay” value: 7.91 nM for the first, 0.44 nM for the second.

Compared with B3, B6 is 2-fold higher in “EC50, FXa restoring assay” value: 0.5 nM for the first, 1 nM for the second.

B4 and B5 are within 1.5-fold of each other in “EC50, FXa restoring assay” value: 0.81 nM for the first, 1.08 nM for the second.

Going from B1 to B2, the “Improvement vs parental 2A8, FXa restoring assay” value (“Improvement vs parental 2A8” for short) rises from 1 fold to 18.2 fold.

Compared with B3, B6 is lower in “Improvement vs parental 2A8” value: 15.8 fold for the first, 7.9 fold for the second.

First: B4
Second: B5
The “Improvement vs parental 2A8” value of the first is higher: 9.7 fold for the first, 7.3 fold for the second.
